Assay results taken from paper PMC4422707.
“And” between values parts separate entries of the source, which are not always exact repeats. Equal values may be shown once.

Biological target: His-SUMO-2B protein (FMDV non-structural 2B protein fused to SUMO) (foot-and-mouth disease virus (FMDV) serotype Asia1)
Experiment: cross-linking

**Q.** With “His-SUMO-2B protein (FMDV non-structural 2B protein fused to SUMO) (natural protein)” as the substance, how does the stoichiometry N read?
**A.** Its stoichiometry N is 2 and 4 and 6.
